Measured values as given in publication PMC11612794.

Molecular target: 3xFLAG-CENP-T^Δ161–216 (chicken) (UniProt F1NPG5)

GFP-Dsn1 (Mis12C) level at mitotic kinetochores in CENP-C^Δ73 cells after IAA: 15%
Substance: Mis12 complex (Mis12C) containing GFP-Dsn1^WT (from UniProt Q1T769 1-210; A0A8V0ZA15 1-290)
